From publication PMC9352680, “A comprehensive thermodynamic model for RNA binding by the Saccharomyces cerevisiae Pumilio protein PUF4”

T1: PUF4 RNA-binding domain (Saccharomyces cerevisiae, UniProt P25339 537-888)
T1 sequence: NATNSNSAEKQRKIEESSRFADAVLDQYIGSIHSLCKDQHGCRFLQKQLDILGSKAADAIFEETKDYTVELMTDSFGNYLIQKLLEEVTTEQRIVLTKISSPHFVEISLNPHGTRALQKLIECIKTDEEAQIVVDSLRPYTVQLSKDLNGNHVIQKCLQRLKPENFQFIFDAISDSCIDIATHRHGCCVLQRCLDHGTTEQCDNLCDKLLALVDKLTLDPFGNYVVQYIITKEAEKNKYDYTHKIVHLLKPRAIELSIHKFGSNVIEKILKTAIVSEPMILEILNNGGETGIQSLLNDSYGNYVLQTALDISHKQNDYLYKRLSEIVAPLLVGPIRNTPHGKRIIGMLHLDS


Molecular target: T1, PUF4 RNA-binding domain
Assay: Mg; RNA-MaP; 20 mM Na-HEPES pH 7.4, 30 mM KOAc, 0.75 mM MgCl2, 0.1% Tween-20, 5% glycerol, 0.1 mg/mL BSA, 2 mM DTT; 25 C; 0.0125-409.6 nM protein
Details: tags: N-His6-TEV cleaved; C-SNAP kept, Cy3B-labelled; label: tethered on chip by stalled RNA polymerase

Binder | Kd [µM]
UCUCUUAAACACUUAUUACUUCUCUU (ssRNA) [Id_ii_S1_P5E.4_K5.3_C5.2_[C-2A]_[T-1A]_H5.3_A5.1_F5.1_T5.2_[T11C]_[A12T]] | > 2.3
UCUCUUAAACACUUAUUACAUCUCUU (ssRNA) [Id_ii_S1_P5E.4_K5.3_C5.2_[C-2A]_[T-1A]_H5.3_A5.1_F5.1_T5.2_[T11C]] | > 2.3
UCUCUUUAACACUUAUUAUUUCUCUU (ssRNA) [Id_ii_S1_P5E.4_K5.3_C5.2_[C-2T]_[T-1A]_H5.3_A5.1_F5.1_T5.2_[A12T]] | > 2.3
UCUCUUAAACACUUAUUAUAUCUCUU (ssRNA) [Id_ii_S1_P5E.4_K5.3_C5.2_[C-2A]_[T-1A]_H5.3_A5.1_F5.1_T5.2] | > 2.3
UCUCUUUAACACUUAUUAUAUCUCUU (ssRNA) [Id_ii_S1_P5E.4_K5.3_C5.2_[C-2T]_[T-1A]_H5.3_A5.1_F5.1_T5.2] | > 2.3
UCUCUUAGACACUUAUUAAUUCUCUU (ssRNA) [Id_ii_S1_P5E.4_K5.3_C5.2_[C-2A]_[T-1G]_H5.3_A5.1_F5.1_T5.2_[T11A]_[A12T]] | > 2.3
UCUCUUAUACACUUAUUAUUUCUCUU (ssRNA) [Id_ii_S1_P5E.4_K5.3_C5.2_[C-2A]_H5.3_A5.1_F5.1_T5.2_[A12T]] | 0.517
UCUCUUUAACACUUAUUACUUCUCUU (ssRNA) [Id_ii_S1_P5E.4_K5.3_C5.2_[C-2T]_[T-1A]_H5.3_A5.1_F5.1_T5.2_[T11C]_[A12T]] | > 2.3
UCUCUUUUACACUUAUUAACUCUCUU (ssRNA) [Id_ii_S1_P5E.4_K5.3_C5.2_[C-2T]_H5.3_A5.1_F5.1_T5.2_[T11A]_[A12C]] | > 2.3
UCUCUUAUACACUUAUUACAUCUCUU (ssRNA) [Id_ii_S1_P5E.4_K5.3_C5.2_[C-2A]_H5.3_A5.1_F5.1_T5.2_[T11C]] | 0.489
UCUCUUACACACUUAUUAAUUCUCUU (ssRNA) [Id_ii_S1_P5E.4_K5.3_C5.2_[C-2A]_[T-1C]_H5.3_A5.1_F5.1_T5.2_[T11A]_[A12T]] | > 2.3
UCUCUUACACACUUAUUAUAUCUCUU (ssRNA) [Id_ii_S1_P5E.4_K5.3_C5.2_[C-2A]_[T-1C]_H5.3_A5.1_F5.1_T5.2] | > 2.3
UCUCUUAUACACUUAUUAACUCUCUU (ssRNA) [Id_ii_S1_P5E.4_K5.3_C5.2_[C-2A]_H5.3_A5.1_F5.1_T5.2_[T11A]_[A12C]] | 0.464
UCUCUUUUACACUUAUUAUUUCUCUU (ssRNA) [Id_ii_S1_P5E.4_K5.3_C5.2_[C-2T]_H5.3_A5.1_F5.1_T5.2_[A12T]] | > 2.3
UCUCUUCGACACUUAUUACUUCUCUU (ssRNA) [Id_ii_S1_P5E.4_K5.3_C5.2_[T-1G]_H5.3_A5.1_F5.1_T5.2_[T11C]_[A12T]] | > 2.3
UCUCUUAAACACUUAUUAACUCUCUU (ssRNA) [Id_ii_S1_P5E.4_K5.3_C5.2_[C-2A]_[T-1A]_H5.3_A5.1_F5.1_T5.2_[T11A]_[A12C]] | > 2.3

Binder | Kd [µM]
UCUCUUAAACACUUAUUAAUUCUCUU (ssRNA) [Id_ii_S1_P5E.4_K5.3_C5.2_[C-2A]_[T-1A]_H5.3_A5.1_F5.1_T5.2_[T11A]_[A12T]] | > 2.3
UCUCUUAUACACUUAUUAAAUCUCUU (ssRNA) [Id_ii_S1_P5E.4_K5.3_C5.2_[C-2A]_H5.3_A5.1_F5.1_T5.2_[T11A]] | 0.744
UCUCUUUAACACUUAUUACAUCUCUU (ssRNA) [Id_ii_S1_P5E.4_K5.3_C5.2_[C-2T]_[T-1A]_H5.3_A5.1_F5.1_T5.2_[T11C]] | > 2.3
UCUCUUUGUAUUAUCAUCUCUU (ssRNA) [Ia_S1_P5E.1_K5.1_C5.1_H5.1_A5.1_F5.1_[T9C]_T5.1] | 0.0219
UCUCUUAUACACUUAUUACCUCUCUU (ssRNA) [Id_ii_S1_P5E.4_K5.3_C5.2_[C-2A]_H5.3_A5.1_F5.1_T5.2_[T11C]_[A12C]] | 0.606
UCUCUUAGACACUUAUUAAAUCUCUU (ssRNA) [Id_ii_S1_P5E.4_K5.3_C5.2_[C-2A]_[T-1G]_H5.3_A5.1_F5.1_T5.2_[T11A]] | > 2.3
UCUCUUUUACACUUAUUAUGUCUCUU (ssRNA) [Id_ii_S1_P5E.4_K5.3_C5.2_[C-2T]_H5.3_A5.1_F5.1_T5.2_[A12G]] | > 2.3
UCUCUUAUACACUUAUUAUAUCUCUU (ssRNA) [Id_ii_S1_P5E.4_K5.3_C5.2_[C-2A]_H5.3_A5.1_F5.1_T5.2] | 0.33
UCUCUUUUACACUUAUUAUAUCUCUU (ssRNA) [Id_ii_S1_P5E.4_K5.3_C5.2_[C-2T]_H5.3_A5.1_F5.1_T5.2] | > 2.3
UCUCUUAUACACUUAUUAGCUCUCUU (ssRNA) [Id_ii_S1_P5E.4_K5.3_C5.2_[C-2A]_H5.3_A5.1_F5.1_T5.2_[T11G]_[A12C]] | 0.647
UCUCUUAGACACUUAUUAUUUCUCUU (ssRNA) [Id_ii_S1_P5E.4_K5.3_C5.2_[C-2A]_[T-1G]_H5.3_A5.1_F5.1_T5.2_[A12T]] | > 2.3
UCUCUUUAACACUUAUUAAUUCUCUU (ssRNA) [Id_ii_S1_P5E.4_K5.3_C5.2_[C-2T]_[T-1A]_H5.3_A5.1_F5.1_T5.2_[T11A]_[A12T]] | > 2.3
UCUCUUUAACACUUAUUAAAUCUCUU (ssRNA) [Id_ii_S1_P5E.4_K5.3_C5.2_[C-2T]_[T-1A]_H5.3_A5.1_F5.1_T5.2_[T11A]] | > 2.3
UCUCUUAGACACUUAUUACAUCUCUU (ssRNA) [Id_ii_S1_P5E.4_K5.3_C5.2_[C-2A]_[T-1G]_H5.3_A5.1_F5.1_T5.2_[T11C]] | > 2.3
UCUCUUACACACUUAUUAUUUCUCUU (ssRNA) [Id_ii_S1_P5E.4_K5.3_C5.2_[C-2A]_[T-1C]_H5.3_A5.1_F5.1_T5.2_[A12T]] | > 2.3
